Results as given in patent US6461832B2, “Method of detecting procarboxypeptidase A and carboxypeptidase A levels in biological fluids” (priority 1997, dated 2002).
Several values for one entry are separate records, joined by “and”; a condition that tells them apart may be missing. Equal values may be shown once.

T1: carboxypeptidase A (CPA) (Homo sapiens, UniProt P15085)
T1 sequence (P15085 111-419): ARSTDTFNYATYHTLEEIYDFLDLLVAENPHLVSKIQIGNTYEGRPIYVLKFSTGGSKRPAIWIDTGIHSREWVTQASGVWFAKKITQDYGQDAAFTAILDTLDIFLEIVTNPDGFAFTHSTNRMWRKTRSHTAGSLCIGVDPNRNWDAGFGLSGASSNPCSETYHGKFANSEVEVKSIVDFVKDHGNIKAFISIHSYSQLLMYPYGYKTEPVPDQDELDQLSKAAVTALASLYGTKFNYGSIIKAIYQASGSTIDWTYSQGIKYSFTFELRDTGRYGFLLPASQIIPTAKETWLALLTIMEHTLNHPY

B1: clostripain: protease added to activate PCPA in the biological fluid (protein, UniProt P09870 51-181; P09870 191-526, looked up)
Clostripain light chain: NKNQKVTIMYYCDADNNLEGSLLNDIEEMKTGYKDSPNLNLIALVDRSPRYSSDEKVLGEDFSDTRLYKIEHNKANRLDGKNEFPEISTTSKYEANMGDPEVLKKFIDYCKSNYEADKYVLIMANHGGGAR
Clostripain heavy chain: AICWDDSNLDKNGEADCLYMGEISDHLTEKQSVDLLAFDACLMGTAEVAYQYRPGNGGFSADTLVASSPVVWGPGFKYDKIFDRIKAGGGTNNEDDLTLGGKEQNFDPATITNEQLGALFVEEQRDSTHANGRYDQHLSFYDLKKAESVKRAIDNLAVNLSNENKKSEIEKLRGSGIHTDLMHYFDEYSEGEWVEYPYFDVYDLCEKINKSENFSSKTKDLASNAMNKLNEMIVYSFGDPSNNFKEGKNGLSIFLPNGDKKYSTYYTSTKIPHWTMQSWYNSIDTVKYGLNPYGKLSWCKDGQDPEINKVGNWFELLDSWFDKTNDVTGGVNHYQW

Tests used:
carboxypeptidase A (CPA) = target: T1, carboxypeptidase A (CPA); details: CPA specific inhibitor; reported values (Byers and Wolfenden 1973; Peterson et al. 1976); cited from earlier work
[1] = tested on: procarboxypeptidase A (PCPA) in human serum; assay: Activation of PCPA in human serum with clostripain, total CPA activity; format: biochemical; details: sera from four healthy individuals and one with pancreatitis
Experimental: In the present invention, the protease clostripain was added to activate any PCPA in the biological fluid so that total CPA could be measured.
Approximately 3 mg (500 units) of lyophilized clostripain was dissolved in 1 ml of 10 mM Tris buffer (pH 8.0) along with CaCl2 and Cleland's Reagent at final concentrations of 20 mM and 1 mM, respectively. This mixture was incubated at room temperature for approximately 2 hours. This solution was then added to serum in concentrations ranging from approximately 50 to 500 units of clostripain/ml of serum. One unit was defined as the amount of clostripain which could cleave one micromole of Nα-benzoyl arginine ethyl ester (BAEE) in one minute. Determination of PCPA levels in blood donor samples was performed with 250 units of clostripain per ml serum. The standard serum volume was 0.013 ml serum per ml total solution. This mixture was incubated for five minutes at 37° C., after which time Ellman's Reagent was added at the standard concentration to eliminate clostripain as it quickly derivatizes all sulfhydryl groups in the mixture. From this point, the standard assay as described in Example 2 was followed.

| Molecule | Ki (carboxypeptidase A (CPA)) | CPA activities after activation, compared with trypsin [1] | CPA activity loss at supramaximal concentrations of activating protease ([1]; unlike trypsin) |
| --- | --- | --- | --- |
| O=C(O)CC(Cc1ccccc1)C(=O)O (racemic) [α-benzylsuccinic acid] | 1000 nM and 1600 nM |  |  |
| B1 |  | significantly higher than the maximum values that could be obtained when using trypsin | only slight CPA activity losses |
